From patent US20240158497A1 (published 2024)

B1: bsAb19139D (bispecific antibody, V domains shown)
VH 1: QVQLVESGGGVVQPGRSLRLSCTASGFTFSSYAMYWVRQAPGKGLEWVSVIYYDGSYKYYADSVKGRFTISRDNSKNTLYLQMDSLRAEDTAVYYCASYNWNYWYFDFWGRGTLVTVSS
VH 2: QVQLVESGGGVVQPGGSLRLSCAASGFTFSTYDIHWVRQAPGKGLEWVAVISFDGSNRNYGDSVKGRFTISRDNSDNTLFLEMNNLRFEDTAVYYCAKEGYGVDFQHWGQGTLVTVSS
VL: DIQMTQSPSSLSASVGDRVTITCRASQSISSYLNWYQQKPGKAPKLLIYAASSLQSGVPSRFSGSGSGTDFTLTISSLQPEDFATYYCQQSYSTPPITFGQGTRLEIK
notes: LEPR x GP130 bispecific with common light chain
B2: bsAb19141D (bispecific antibody, V domains shown)
VH 1: B1 VH 1
VH 2: EVQLVESGGGVVRPGGSLRLSCTASGFTFDDYGMSWVRQAPGKGLEWVSGINWNGGRTEYADAVKGRFIISRDNAKNSLYLQMNSLRAEDTALYFCARTELRWDYWGQGTLVTVSS
VL: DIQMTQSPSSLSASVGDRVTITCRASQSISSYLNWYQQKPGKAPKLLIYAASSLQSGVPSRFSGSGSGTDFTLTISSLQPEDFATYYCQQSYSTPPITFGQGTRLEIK
notes: as for B1
B3: bsAb19140D (bispecific antibody, V domains shown)
VH 1: B1 VH 1
VH 2: QVQLQESGPGLVKPSETLSLTCTVSGGSISNYYWTWIRQPPGKGLEWIGHISNSGTTNYNPSLKSRVTISVDTSKNQFSLKLTSVTAADTAVYYCARLPLGIAAVDTDYYYYFGMDVWGQGTTVTVSS
VL: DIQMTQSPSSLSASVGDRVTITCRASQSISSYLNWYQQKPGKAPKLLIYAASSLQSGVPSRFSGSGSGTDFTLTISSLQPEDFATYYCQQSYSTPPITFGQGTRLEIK
notes: as for B1
B4: bsAb19147D (bispecific antibody, V domains shown)
VH 1: B1 VH 1
VH 2: EVQLVESGGGLVQPGGSLRLSCTASGFTFSNYAIFWVRQAPGKGLEYVSGISNNGVTKYYADSVRDRFTISRDNSRNTVSIQMDSLRTEDMAVYYCARENWGSDDGFDIWGQGTMVTVSS
VL: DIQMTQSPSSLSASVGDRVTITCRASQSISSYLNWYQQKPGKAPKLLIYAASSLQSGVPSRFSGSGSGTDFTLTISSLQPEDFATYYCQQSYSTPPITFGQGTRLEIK
notes: as for B1
B5: bsAb19142D (bispecific antibody, V domains shown)
VH 1: B1 VH 1
VH 2: EVQLVESGGGLVQPGGSLRLSCAASGLTFSSYEMNWVRQAPGKGLEWVSHISSAGSTKYYADSVKGRFTISRDNAKNSLFLQMNSLRAEDTAIYYCAGYNYAYYYFGVDVWGQGTTVTVSS
VL: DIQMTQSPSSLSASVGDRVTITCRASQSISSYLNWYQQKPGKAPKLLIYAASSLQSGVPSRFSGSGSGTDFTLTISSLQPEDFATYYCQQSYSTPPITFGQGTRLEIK
notes: as for B1
B6: bsAb19143D (bispecific antibody, V domains shown)
VH 1: B1 VH 1
VH 2: QLQLQESGPGLVKPSETLSLICTVSGGSISSNNYYWGWIRQPPGKGLEWIGNLYGSGSTYYNPSLKSRVTISVDTSKNQFSLKLSFVTAADTAVYHCARWDTNGGAFDIWGQGTMVTVSS
VL: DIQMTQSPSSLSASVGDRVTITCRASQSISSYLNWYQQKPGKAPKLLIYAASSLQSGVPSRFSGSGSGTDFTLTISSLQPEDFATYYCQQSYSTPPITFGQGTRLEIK
notes: as for B1
B7: bsAb21236D (bispecific antibody, V domains shown)
VH 1: QVQLQESGPGLVKPSQTLSLTCTVSGGSISSGGDYWSWIRQLPGKGLEWIGYIYYSGSAYYNPSLKSRGTISIDTSKNQFSLKLTSVTAADTAVYFCVKLRFLEWFLGGWFGPWGQGTLVTVSS
VH 2: QVQLVESGGGLVKPGGSLRLSCAASGFTFSDYYMTWIRQTPGKGLDWVSYISSSGTNKYNADSVKGRFTISRDNAKNSLYLQMNSLRAEDTAVYYCVRDPPWGMDVWGQGTTVTVSS
VL: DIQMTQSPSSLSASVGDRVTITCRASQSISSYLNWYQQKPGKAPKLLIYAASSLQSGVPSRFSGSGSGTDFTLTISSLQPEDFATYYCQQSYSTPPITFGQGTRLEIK
notes: common light chain; also called H4H21236D
B8: bsAb21237D (bispecific antibody, V domains shown)
VH 1: EVQLVESGGGLVQPGGSLRLSCAASGFTFSNYGMTWVRQAPGKGLEWVSAITGGGGSTYYSNSVKGRFTISRDNSKNTVYLRMNSVRAEDTAVYYCAKYKWNFVDDWGQGTTVTVSS
VH 2: B7 VH 2
VL: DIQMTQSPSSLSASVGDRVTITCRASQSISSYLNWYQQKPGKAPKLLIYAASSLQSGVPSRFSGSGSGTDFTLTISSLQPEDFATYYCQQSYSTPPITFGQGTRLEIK
notes: common light chain; also called H4H21237D

Target: T1, Macaca Fascicularis GP130 extracellular domain expressed with a C-terminal myc-myc-hexahistidine tag (Macaca fascicularis, UniProt P40189 23-619 (human entry))
T1 construct: also called mfGP130-MMH; mfGP130-mmH
T1 chain: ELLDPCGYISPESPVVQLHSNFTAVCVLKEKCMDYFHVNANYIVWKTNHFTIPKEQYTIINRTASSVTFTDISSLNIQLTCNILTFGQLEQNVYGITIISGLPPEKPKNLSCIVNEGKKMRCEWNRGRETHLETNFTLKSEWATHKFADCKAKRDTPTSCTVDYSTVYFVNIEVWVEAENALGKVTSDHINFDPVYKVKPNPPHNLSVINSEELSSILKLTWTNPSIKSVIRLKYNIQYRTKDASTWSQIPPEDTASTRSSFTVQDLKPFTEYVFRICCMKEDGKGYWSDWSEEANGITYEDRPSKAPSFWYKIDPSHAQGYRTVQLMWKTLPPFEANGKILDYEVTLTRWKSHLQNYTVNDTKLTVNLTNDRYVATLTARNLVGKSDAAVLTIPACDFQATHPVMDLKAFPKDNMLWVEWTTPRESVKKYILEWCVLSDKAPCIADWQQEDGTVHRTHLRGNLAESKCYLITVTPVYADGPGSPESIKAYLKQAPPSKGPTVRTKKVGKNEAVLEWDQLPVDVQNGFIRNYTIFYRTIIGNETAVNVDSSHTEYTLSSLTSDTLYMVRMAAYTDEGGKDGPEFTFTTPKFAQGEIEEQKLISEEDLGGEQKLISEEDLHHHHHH
Test: SPR, bsAb captured by anti-hFc, 37C
Protocol: (§1) Equilibrium dissociation constants (KD values) for LEPR and GP130 binding to purified anti-LEPR/GP130 bispecific antibodies were determined using a real-time surface plasmon resonance biosensor using a Biacore 4000 instrument. All binding studies were performed in 10 mM HEPES, 150 mM NaCl, 3 mM EDTA, and 0.05% v/v Surfactant Tween-20, pH 7.4 (HBS-ET) running buffer at 25° C. and 37° C. The Biacore sensor surface was first derivatized by amine coupling with a monoclonal mouse anti-human Fc antibody (GE, #BR-1008-39) to capture anti-LEPR/GP130 bispecific antibodies. […] Different concentrations of LEPR or GP130 reagents were first prepared in HBS-ET running buffer (100 nM-3.7 nM; 3-fold serial dilution) and were injected over anti-human Fc captured anti-LEPR/GP130 bispecific antibody surface for 4 minutes at a flow rate of 30 μL/minute, while the dissociation of bispecific antibody bound LEPR or GP130 reagent was monitored for 10 minutes in HBS-ET running buffer. Kinetic association (kₐ) and dissociation (kd) rate constants were determined by fitting the real-time binding sensorgrams to a 1:1 binding model with mass transport limitation using Scrubber 2.0c curve-fitting software. Binding dissociation equilibrium constants (KD) and dissociative half-lives (t ½) were calculated from the kinetic rate constants as: […]

Row | Binder | 100 nM mfGP130-MMH Bound (RU) | binding result | Kd | koff | kon | t½
1 | B1 | 2 RU | no binding (tested: 100 nM) | – | – | – | –
2 | B2 | 15 RU | – | 212 nM | 0.0513 s⁻¹ | 242000 M⁻¹ s⁻¹ | 0.2 min
3 | B3 | 14 RU | – | 183 nM | 0.146 s⁻¹ | 797000 M⁻¹ s⁻¹ | 0.1 min
4 | B4 | 3 RU | no binding (tested: 100 nM) | – | – | – | –
5 | B5 | 33 RU | – | 21.6 nM | 0.00715 s⁻¹ | 332000 M⁻¹ s⁻¹ | 1.6 min
6 | B6 | 14 RU | – | 57.9 nM | 0.00396 s⁻¹ | 68300 M⁻¹ s⁻¹ | 2.9 min

Target: T2, human GP130 extracellular domain expressed with a C-terminal myc-myc-hexahistidine tag (human, UniProt P40189 23-619)
T2 construct: also called hGP130-MMH; hGP130-mmH
Test: SPR, bsAb captured by anti-hFc, 37C
Protocol: as §1

Row | Binder | 100 nM hGP130-MMH Bound (RU) | binding result | Kd | koff | kon | t½
7 | B1 | 3 RU | no binding (tested: 100 nM) | – | – | – | –
8 | B2 | 15 RU | – | 347 nM | 0.0621 s⁻¹ | 179000 M⁻¹ s⁻¹ | 0.2 min
9 | B3 | 19 RU | – | 144 nM | 0.12 s⁻¹ | 829000 M⁻¹ s⁻¹ | 0.1 min
10 | B5 | 37 RU | – | 17.5 nM | 0.00622 s⁻¹ | 356000 M⁻¹ s⁻¹ | 1.9 min
11 | B6 | 27 RU | – | 44.6 nM | 0.00212 s⁻¹ | 47600 M⁻¹ s⁻¹ | 5 min

Target: T1, Macaca Fascicularis GP130 extracellular …
Test: SPR, bsAb captured by anti-hFc, 25C
Protocol: as §1

Row | Binder | 100 nM mfGP130-MMH Bound (RU) | Kd | koff | kon | t½
12 | B1 | 6 RU | – | – | – | –
13 | B2 | 15 RU | 184 nM | 0.0207 s⁻¹ | 112000 M⁻¹ s⁻¹ | 0.6 min
14 | B3 | 20 RU | 136 nM | 0.0546 s⁻¹ | 402000 M⁻¹ s⁻¹ | 0.2 min
15 | B4 | 5 RU | – | – | – | –
16 | B5 | 28 RU | 31.2 nM | 0.00374 s⁻¹ | 120000 M⁻¹ s⁻¹ | 3.1 min
17 | B6 | 10 RU | 43 nM | 0.0013 s⁻¹ | 30100 M⁻¹ s⁻¹ | 9 min

Target: T2, human GP130 extracellular domain …
Test: SPR, bsAb captured by anti-hFc, 25C
Protocol: as §1

Row | Binder | 100 nM hGP130-MMH Bound (RU) | Kd | koff | kon | t½
18 | B1 | 6 RU | – | – | – | –
19 | B2 | 15 RU | 219 nM | 0.0232 s⁻¹ | 106000 M⁻¹ s⁻¹ | 0.5 min
20 | B3 | 23 RU | 105 nM | 0.0477 s⁻¹ | 455000 M⁻¹ s⁻¹ | 0.2 min
21 | B5 | 31 RU | 19 nM | 0.00329 s⁻¹ | 173000 M⁻¹ s⁻¹ | 4 min
22 | B6 | 16 RU | 20.2 nM | 0.000647 s⁻¹ | 32000 M⁻¹ s⁻¹ | 18 min

Target: T3, Macaca Fascicularis LEPR extracellular domain expressed with a C-terminal myc-myc-hexahistidine tag (Macaca fascicularis, UniProt Q9MYL0 22-837 (rhesus entry))
T3 construct: Monomeric reagent; the whole entry is the construct with its tag; also called mfLEPR-MMH
Test: SPR Biacore 4000, bsAb captured by anti-human Fc, 37 C
Protocol: as §1

Row | Binder | 100 nM mfLEPR-MMH Bound (RU) | Kd | koff | kon | t½
23 | B7 | 9 RU | 284 nM | 0.0176 s⁻¹ | 61900 M⁻¹ s⁻¹ | 0.7 min
24 | B8 | 27 RU | 151 nM | 0.00424 s⁻¹ | 28100 M⁻¹ s⁻¹ | 2.7 min

Target: T4, human LEPR extracellular domain expressed with a C-terminal myc-myc-hexahistidine tag (human, UniProt P48357 22-839)
T4 construct: Monomeric reagent; the whole entry is the construct with its tag; also called hLEPR-MMH; hLEPR.mmh
Test: as above
Protocol: as §1

Row | Binder | 100 nM hLEPR-MMH Bound (RU) | Kd | koff | kon | t½
25 | B7 | 5 RU | 726 nM | 0.0131 s⁻¹ | 18000 M⁻¹ s⁻¹ | 0.9 min
26 | B8 | 15 RU | 280 nM | 0.00442 s⁻¹ | 15800 M⁻¹ s⁻¹ | 2.6 min

Target: T3, Macaca Fascicularis LEPR extracellular …
Test: SPR Biacore 4000, bsAb captured by anti-human Fc, 25 C
Protocol: as §1

Row | Binder | 100 nM mfLEPR-MMH Bound (RU) | Kd | koff | kon | t½
27 | B7 | 12 RU | 83.4 nM | 0.00482 s⁻¹ | 57900 M⁻¹ s⁻¹ | 2.4 min
28 | B8 | 16 RU | 37.8 nM | 0.00116 s⁻¹ | 30800 M⁻¹ s⁻¹ | –

Target: T4, human LEPR extracellular domain …
Test: as above
Protocol: as §1

Row | Binder | Kd | koff | kon | t½ | 100 nM hLEPR-MMH Bound (RU)
29 | B7 | 106 nM | 0.00372 s⁻¹ | 35100 M⁻¹ s⁻¹ | 3.1 min | –
30 | B8 | 78.7 nM | 0.00121 s⁻¹ | 15300 M⁻¹ s⁻¹ | – | 11 RU
